Assay results from patent US20170334950.

What was measured:
[1] = target: FLT3 Artificial Substrate (FAS) candidate sequence H
[2] = target: FLT3 Artificial Substrate (FAS) candidate sequence F
[3] = target: FLT3 Artificial Substrate (FAS) candidate sequence A
[4] = target: FLT3 Artificial Substrate (FAS) candidate sequence G
[5] = target: FLT3 Artificial Substrate (FAS) candidate sequence E
[6] = target: FLT3 Artificial Substrate (FAS) candidate sequence B
[7] = target: FLT3 Artificial Substrate (FAS) candidate sequence C
[8] = target: FLT3 Artificial Substrate (FAS) candidate sequence D

B1: recombinant FLT3-D835Y mutant kinase (protein)
chain: HKYKKQFRYESQLQMVQVTGSSDNEYFYVDFREYEYDLKWEFPRENLEFGKVLGSGAFGKVMNATAYGISKTGVSIQVAVKMLKEKADSSEREALMSELKMMTQLGSHENIVNLLGACTLSGPIYLIFEYCCYGDLLNYLRSKREKFHRTWTEIFKEHNFSFYPTFQSHPNSSMPGSREVQIHPDSDQISGLHGNSFHSEDEIEYENQKRLEEEEDLNVLTFEDLLCFAYQVAKGMEFLEFKSCVHRDLAARNVLVTHGKVVKICDFGLARYIMSDSNYVVRGNARLPVKWMAPESLFEGIYTIKSDVWSYGILLWEIFSLGVNPYPGIPVDANFYKLIQNGFKMDQPFYATEEIYIIMQSCWAFDSRKRPSFPNLTSFLGCQLADAEEAMYQNVDGRVSECPHTYQNRRPFSREMDLGLLSPQAQVEDS
- phosphorylation, in vitro kinase assay [1]: sequence H showed no phosphorylation
- phosphorylation, in vitro kinase assay [2]: Sequences E, F and G were also phosphorylated by FLT3-D835Y but at lower levels than FL-Abltide
- phosphorylation, in vitro kinase assay [3]: Candidate sequences A, B, C displayed higher levels of phosphorylation by FLT3-D835Y compared to FL-Abltide
- phosphorylation, in vitro kinase assay [4]: Sequences E, F and G were also phosphorylated by FLT3-D835Y but at lower levels than FL-Abltide
- phosphorylation, in vitro kinase assay [5]: Sequences E, F and G were also phosphorylated by FLT3-D835Y but at lower levels than FL-Abltide
- phosphorylation, in vitro kinase assay [6]: Candidate sequences A, B, C displayed higher levels of phosphorylation by FLT3-D835Y compared to FL-Abltide
- phosphorylation, in vitro kinase assay [7]: Candidate sequences A, B, C displayed higher levels of phosphorylation by FLT3-D835Y compared to FL-Abltide

B2: recombinant wild type FLT3 kinase (FLT3-WT) (protein)
chain: HKYKKQFRYESQLQMVQVTGSSDNEYFYVDFREYEYDLKWEFPRENLEFGKVLGSGAFGKVMNATAYGISKTGVSIQVAVKMLKEKADSSEREALMSELKMMTQLGSHENIVNLLGACTLSGPIYLIFEYCCYGDLLNYLRSKREKFHRTWTEIFKEHNFSFYPTFQSHPNSSMPGSREVQIHPDSDQISGLHGNSFHSEDEIEYENQKRLEEEEDLNVLTFEDLLCFAYQVAKGMEFLEFKSCVHRDLAARNVLVTHGKVVKICDFGLARDIMSDSNYVVRGNARLPVKWMAPESLFEGIYTIKSDVWSYGILLWEIFSLGVNPYPGIPVDANFYKLIQNGFKMDQPFYATEEIYIIMQSCWAFDSRKRPSFPNLTSFLGCQLADAEEAMYQNVDGRVSECPHTYQNRRPFSREMDLGLLSPQAQVEDS
- phosphorylation, in vitro kinase assay [1]: The remaining sequences did not get phosphorylated by FLT3-WT
- phosphorylation, in vitro kinase assay [2]: The remaining sequences did not get phosphorylated by FLT3-WT
- phosphorylation, in vitro kinase assay, 60-minute incubation [3]: Sequence A showed a similar level of phosphorylation compared to Abltide over a 60-minute incubation
- phosphorylation, in vitro kinase assay [4]: The remaining sequences did not get phosphorylated by FLT3-WT
- phosphorylation, in vitro kinase assay [5]: The remaining sequences did not get phosphorylated by FLT3-WT
- phosphorylation, in vitro kinase assay [6]: The remaining sequences did not get phosphorylated by FLT3-WT
- phosphorylation, in vitro kinase assay [8]: The remaining sequences did not get phosphorylated by FLT3-WT
